# T1: LONM (human mitochondrial matrix AAA+ protease) (human (endogenous in HeLa)) (UniProt P36776)
# T1 sequence: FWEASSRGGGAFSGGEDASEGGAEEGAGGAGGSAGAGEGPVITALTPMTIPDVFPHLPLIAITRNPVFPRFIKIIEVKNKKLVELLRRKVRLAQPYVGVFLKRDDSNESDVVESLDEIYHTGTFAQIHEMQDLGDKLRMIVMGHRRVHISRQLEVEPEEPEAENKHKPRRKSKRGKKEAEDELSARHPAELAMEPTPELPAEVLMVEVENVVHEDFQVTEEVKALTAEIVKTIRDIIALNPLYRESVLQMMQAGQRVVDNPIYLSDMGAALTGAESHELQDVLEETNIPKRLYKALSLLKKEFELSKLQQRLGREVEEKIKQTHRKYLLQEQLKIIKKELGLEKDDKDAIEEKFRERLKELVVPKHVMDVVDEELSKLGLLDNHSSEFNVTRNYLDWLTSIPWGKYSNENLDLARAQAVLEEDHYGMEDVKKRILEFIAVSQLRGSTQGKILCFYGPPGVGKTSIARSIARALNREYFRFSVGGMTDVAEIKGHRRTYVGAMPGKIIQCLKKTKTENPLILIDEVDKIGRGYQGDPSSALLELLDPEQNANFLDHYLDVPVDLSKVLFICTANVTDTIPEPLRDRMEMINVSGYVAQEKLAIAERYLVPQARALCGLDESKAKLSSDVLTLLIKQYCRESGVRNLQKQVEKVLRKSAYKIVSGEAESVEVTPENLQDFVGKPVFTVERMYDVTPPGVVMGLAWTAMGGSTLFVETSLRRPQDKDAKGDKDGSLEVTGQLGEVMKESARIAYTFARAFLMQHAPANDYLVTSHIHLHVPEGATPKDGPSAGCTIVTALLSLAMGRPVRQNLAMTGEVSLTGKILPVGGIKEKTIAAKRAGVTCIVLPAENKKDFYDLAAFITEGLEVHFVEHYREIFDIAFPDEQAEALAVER
# Target: T1, LONM (human mitochondrial matrix AAA+ protease) (human (endogenous in HeLa))
half-life of guanidine-unfolded OTC (OTCU) in in vitro degradation by purified recombinant LONM with ATP [min],half-life of guanidine-unfolded MDH (MDHU) in in vitro degradation by purified recombinant LONM with ATP [min],Binder
15,,mature recombinant OTC (rat ornithine transcarbamylase) (natural protein) SQVQLKGRDLLTLKNFTGEEIQYMLWLSADLKFRIKQKGEYLPLLQGKSLGMIFEKRSTRTRLSTETGFALLGGHPSFLTTQDIHLGVNESLTDTARVLSSMTDAVLARVYKQSDLDILAKEATIPIVNGLSDLYHPIQILADYLTLQEHYGSLKGLTLSWIGDGNNILHSIMMSAAKFGMHLQAATPKGYEPDPNIVKLAEQYAKENGTRLSMTNDPLEAARGGNVLITDTWISMGQEDEKKKRLQAFQGYQVTMKTAKVAASDWTFLHCLPRKPEEVDDEVFYSPRSLVFPEAENRKWTIMAVMVSLLTDYSPVLQKPKF
,4,Pig heart mitochondrial malate dehydrogenase (MDH) (natural protein) AKVAVLGASGGIGQPLSLLLKNSPLVSRLTLYDIAHTPGVAADLSHIETRATVKGYLGPEQLPDCLKGCDVVVIPAGVPRKPGMTRDDLFNTNATIVATLTAACAQHCPDAMICIISNPVNSTIPITAEVFKKHGVYNPNKIFGVTTLDIVRANAFVAELKGLDPARVSVPVIGGHAGKTIIPLISQCTPKVDFPQDQLSTLTGRIQEAGTEVVKAKAGAGSATLSMAYAGARFVFSLVDAMNGKEGVVECSFVKSQETDCPYFSTPLLLGKKGIEKNLGIGKISPFEEKMIAEAIPELKASIKKGEEFVKNMK

# — PMC4667172
